For this data set, the system named is Nc1nc2c(ncn2[C@@H]2O[C@H](COP(=O)(O)O)[C@@H](O)[C@H]2O)c(=O)[nH]1. Put plainly: Michaelis-Menten kinetics of guanylate kinase activity. Type of data set: biochemical, murine. To be noted: other: Table X. From the text:
. […] Table X Kinetic Analysis of Fusion Proteins

Here are results for one substance from patent publication EP1914304A1.

Chain of murine guanylate kinase (gmk), wild-type (Mus musculus) (chain, as listed by the source): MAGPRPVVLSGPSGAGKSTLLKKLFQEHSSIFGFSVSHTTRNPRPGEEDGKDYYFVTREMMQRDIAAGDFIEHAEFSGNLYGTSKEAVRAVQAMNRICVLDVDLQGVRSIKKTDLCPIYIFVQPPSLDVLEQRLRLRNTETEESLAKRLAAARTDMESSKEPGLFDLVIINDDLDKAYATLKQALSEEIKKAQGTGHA

Take “murine guanylate kinase (gmk), wild-type (Mus musculus)”: the Km was 25 µM.

By Km is commonly meant the substrate concentration at which the rate is half of its maximum.
